Experimental data from patent US20120009123A1, “Albumin binding peptide-mediated disease targeting” (ABRAXIS BIOSCIENCE, LLC, priority 2008, published 2012).
Values after ≈ are worked out from the molar mass of the structure shown. Values belong to the molecule of their own block, whether it stands above or below them.

Key:
[1] = system: squamous cervix (A431) line; test: cells; conditions: Homo sapiens, A-431, read-out: IC50, in vitro cytotoxicity
[2] = molecular target: human serum albumin (HSA) (Homo sapiens, UniProt P02768); test: peptide phage display library screening (panning); format: binding; conditions: for assessment of sequence after fourth round of panning: about 100 plaques sequenced, FIG. 11
Experimental: A commercial peptide phage display library (12-mer peptides in M13) was screened for peptides which bind to human serum albumin (HSA) (see FIG. 10). Four rounds of panning were completed as follows:
1. The phage library was screened by coating a 100 ug/ml HSA solution onto the wells of 12-well plate and exposing the wells to 1-2×1011 pfu phage. Bound phage were eluted with a 0.2M Glycine, pH2.2 buffer to yield 15×10^5 pfu/ml (which became 5×1013 pfu/ml after amplification);
2. The second panning was eluted with a 0.2M Glycine, pH 2.2 buffer to yield 12×10^6 pfu/ml (8×1013 pfu/ml after amplification);
3. The third panning was eluted with 250 ug/ml HSA for 1 hr to yield 5×10^5 pfu/ml (2×1012 pfu/ml after amplification); and
4. a fourth panning was eluted with a 0.2M Glycine, pH2.2 buffer to yield 14×10^8 pfu/ml. After the fourth round of panning, about 100 plaques were selected, amplified and sequenced.

[3] = molecular target: binding of albumin to SPARC (Homo sapiens, UniProt P02768); test: competitive binding assays with SPARC C-terminal cysteine-poor domain peptides; conditions: general statement in the description
Experimental: The 15 mer SPARC C-terminal, cysteine-poor domain-spanning peptides were used in competitive binding assays. Specifically, the SPARC peptides were immobilized onto PVDF-attached 96 well plate in an overnight incubation at 4° C. (5 μg/well). The next day the plate was washed with DPBS and blocked for an hour with 5% Non-fat dry milk in DPBS. Next, 100 μl of DPBS was added to each well except the wells in first row. A vial of Alexa 488-BSA (5 mg) was dissolved with 1.2 ml of 25% HSA. Then, 100 μl of BSA-HSA was mixed with 100 μl of SPARC peptides prepared as 4 mg/ml in DPBS (resulting in a final concentration of the Alexa 488-BSA and peptides in first row of about 200 ug/well each). Serial dilution was made down to each column. The plate was incubated for an hour in a dark place, was washed, and the fluorescence was read. […] To further localize the SPARC albumin binding site SPARC sub-fragments were made (FIG. 8). In particular, peptides #103 ([…]) (SEQ ID NO: 66) and #104 ([…]) are subfragments of the sole active peptide, peptide #47.

human serum albumin = molecular target: T1, human serum albumin (human, UniProt P02768 25-609); test: M13 12-mer phage display, four rounds of panning on coated HSA, sequencing of about 100 plaques
T1 construct: also called HSA; human albumin

[4] = system: human serum albumin spiked with Alexa fluor 488 conjugated bovine serum albumin; test: SPARC-albumin interaction: SPARC immobilized on PVDF, fluorescent albumin binding; conditions: for albumin binding: polypeptide immobilized 5 μg/well on PVDF, FIG. 2
Experimental: Full length, wild-type SPARC (“WT”), a SPARC deletion mutant in which the glutamine at residue 3 is deleted (“Q3”) or SPARC treated with Cathepsin K were immobilized on PVDF membrane and exposed to decreasing concentrations of human serum albumin spiked with Alexa fluor 488 conjugated bovine serum albumin.
In the initial experiment, full length, wild-type SPARC and “Q3” mutant SPARC polypeptides were immobilized onto PVDF-attached 96 well plate by overnight at 4° C. incubation (5 μg/well). The next day the plate was washed with DPBS and blocked for an hour with 5% non-fat dry milk in DPBS. 100 μl of DPBS was added to each well. A vial of Alexa 488-BSA (5 mg) was dissolved with 1.2 ml of 25% Human Serum Albumin (“HSA”) and 100 μl of BSA-HSA mix was added to wells of first row of plate (resulting in a final concentration of Alexa 488-BSA in first row becomes about 200 μg/well). Serial dilutions were made down each column and the plate was incubated for an hour in a dark place. After 1 hr incubation, the membrane was washed with PBS and the amount of albumin remained quantified by fluorescent plate reader.
Thirty μg of recombinant human (“rh”) SPARC was incubated with 0.4 μg of Cathepsin K for 10, 30, 60 and 120 minutes. […] Accordingly, overlapping 15 mer peptides were prepared which spanned the SPARC C-terminal, cysteine-poor domain (FIG. 6).

albumin binding to SPARC = molecular target: T2, albumin binding to SPARC (Homo sapiens, UniProt P09486); test: follow-up competitive studies of albumin binding to SPARC
T2 construct: Full length, wild-type SPARC (“WT”)
T2 sequence (P09486 18-303): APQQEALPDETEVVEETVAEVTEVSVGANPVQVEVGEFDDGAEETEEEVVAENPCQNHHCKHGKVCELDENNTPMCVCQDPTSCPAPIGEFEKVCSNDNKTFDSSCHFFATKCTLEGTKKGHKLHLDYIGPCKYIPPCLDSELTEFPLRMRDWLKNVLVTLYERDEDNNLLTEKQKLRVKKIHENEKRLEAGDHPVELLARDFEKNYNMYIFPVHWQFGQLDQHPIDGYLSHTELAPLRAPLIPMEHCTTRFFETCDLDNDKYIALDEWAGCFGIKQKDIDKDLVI

Molecule: CC(=O)O[C@H]1C(=O)[C@@]2(C)[C@H]([C@H](OC(=O)c3ccccc3)[C@]3(O)C[C@H](OC(=O)[C@H](O)[C@@H](NC(=O)c4ccccc4)c4ccccc4)C(C)=C1C3(C)C)[C@]1(OC(C)=O)CO[C@@H]1C[C@@H]2O [TAX]
IC50 [1]: 0.012 µg/mL (≈ 0.0141 µM)

Molecule: KNHGATRTTRAS [SEQ ID NO: 2, called Peptide 47 in b190]
assessment of sequence after fourth round of panning [2]: probably be a true ligand | binding to human albumin ([2]; general statement in the description): binds human albumin with great avidity

B1: SPARC: Secreted Protein, Acidic, Rich in Cysteines; full length, wild-type, 303 amino acid glycoprotein (protein)
chain: APQQEALPDETEVVEETVAEVTEVSVGANPVQVEVGEFDDGAEETEEEVVAENPCQNHHCKHGKVCELDENNTPMCVCQDPTSCPAPIGEFEKVCSNDNKTFDSSCHFFATKCTLEGTKKGHKLHLDYIGPCKYIPPCLDSELTEFPLRMRDWLKNVLVTLYERDEDNNLLTEKQKLRVKKIHENEKRLEAGDHPVELLARDFEKNYNMYIFPVHWQFGQLDQHPIDGYLSHTELAPLRAPLIPMEHCTTRFFETCDLDNDKYIALDEWAGCFGIKQKDIDKDLVI
albumin binding after cathepsin K digest ([4]; cathepsin K digest 60 min, FIG. 5): obliterated | albumin binding [4]: bind albumin | IC50 of albumin binding to SPARC (albumin binding to SPARC): 5%

B2: Q3: SPARC deletion mutant in which the glutamine at residue 3 is deleted (protein)
chain: APQEALPDETEVVEETVAEVTEVSVGANPVQVEVGEFDDGAEETEEEVVAENPCQNHHCKHGKVCELDENNTPMCVCQDPTSCPAPIGEFEKVCSNDNKTFDSSCHFFATKCTLEGTKKGHKLHLDYIGPCKYIPPCLDSELTEFPLRMRDWLKNVLVTLYERDEDNNLLTEKQKLRVKKIHENEKRLEAGDHPVELLARDFEKNYNMYIFPVHWQFGQLDQHPIDGYLSHTELAPLRAPLIPMEHCTTRFFETCDLDNDKYIALDEWAGCFGIKQKDIDKDLVI
albumin binding [4]: bind albumin

Second part, the molecule after the results:

binding to human albumin [3]: binds human albumin with great avidity
Molecule: MYIFPVHWQFGQLDQ [peptide #47, 15 mer, amino acids 209-223 of the human SPARC protein]

assessment of sequence after fourth round of panning [2]: nonspecific binding
Molecule: WPHHHHTRLSTV

binding result (human serum albumin): binds
Molecule: KNHGATRTTRAS [KNHGATRTTRAS (Peptide 47; SEQ ID NO: 2)]
